Reference: paper PMC12460158, “Structural basis of fast N-type inactivation in Kv channels” (Nature, 2025)
Ends that are not written are not given here.

B1: full-length E12K/D13K AcA-EI Shaker Kv channel (enhanced inactivation mutant, initiator Met removed, Ala2 acetylated) (natural protein, Drosophila melanogaster, UniProt P08510 2-655, looked up)
chain: AAVAGLYGLGKKRQHRKKQQQQQQHQKEQLEQKEEQKKIAERKLQLREQQLQRNSLDGYGSLPKLSSQDEEGGAGHGFGGGPQHFEPIPHDHDFCERVVINVSGLRFETQLRTLNQFPDTLLGDPARRLRYFDPLRNEYFFDRSRPSFDAILYYYQSGGRLRRPVNVPLDVFSEEIKFYELGDQAINKFREDEGFIKEEERPLPDNEKQRKVWLLFEYPESSQAARVVAIISVFVILLSIVIFCLETLPEFKHYKVFNTTTNGTKIEEDEVPDITDPFFLIETLCIIWFTFELTVRFLACPNKLNFCRDVMNVIDIIAIIPYFITLATVVAEEEDTLNLPKAPVSPQDKSSNQAMSLAILRVIRLVRVFRIFKLSRHSKGLQILGRTLKASMRELGLLIFFLFIGVVLFSSAVYFAEAGSENSFFKSIPDAFWWAVVTMTTVGYGDMTPVGVWGKIVGSLCAIAGVLTIALPVPVIVSNFNYFYHRETDQEEMQSQNFNHVTSCPYLPGTLGQHMKKSSLSESSSDMMDLDDGVESTPGLTETHPGRSAVAPFLGAQQQQQQPVASSLSMSIDKQLQHPLQQLTQTQLYQQQQQQQQQQQNGFKQQQQQTQQQLQQQQSHTINASAAAATSGSGSSGLTMRHNNALAVSIETDV
modifications: acetyl on the N-terminal Ala2 (initiator Met removed), by mass spectrometry
notes: Shaker Kv channel, Drosophila melanogaster; Residues of the TEV site may remain at the C terminus (surmise); not shown: mVenus, C-terminal, cleaved; polyhistidine, C-terminal, cleaved
B2: full-length wild-type (WT) Shaker Kv channel, C-terminally mVenus tagged, tag removed (natural protein, Drosophila melanogaster, UniProt P08510 1-655, looked up)
chain: MAAVAGLYGLGEDRQHRKKQQQQQQHQKEQLEQKEEQKKIAERKLQLREQQLQRNSLDGYGSLPKLSSQDEEGGAGHGFGGGPQHFEPIPHDHDFCERVVINVSGLRFETQLRTLNQFPDTLLGDPARRLRYFDPLRNEYFFDRSRPSFDAILYYYQSGGRLRRPVNVPLDVFSEEIKFYELGDQAINKFREDEGFIKEEERPLPDNEKQRKVWLLFEYPESSQAARVVAIISVFVILLSIVIFCLETLPEFKHYKVFNTTTNGTKIEEDEVPDITDPFFLIETLCIIWFTFELTVRFLACPNKLNFCRDVMNVIDIIAIIPYFITLATVVAEEEDTLNLPKAPVSPQDKSSNQAMSLAILRVIRLVRVFRIFKLSRHSKGLQILGRTLKASMRELGLLIFFLFIGVVLFSSAVYFAEAGSENSFFKSIPDAFWWAVVTMTTVGYGDMTPVGVWGKIVGSLCAIAGVLTIALPVPVIVSNFNYFYHRETDQEEMQSQNFNHVTSCPYLPGTLGQHMKKSSLSESSSDMMDLDDGVESTPGLTETHPGRSAVAPFLGAQQQQQQPVASSLSMSIDKQLQHPLQQLTQTQLYQQQQQQQQQQQNGFKQQQQQTQQQLQQQQSHTINASAAAATSGSGSSGLTMRHNNALAVSIETDV
notes: Shaker Kv channel, Drosophila melanogaster, full-length gene; Residues of the TEV site may remain at the C terminus (surmise); also called C-terminally tagged WT Shaker; C-terminal mVenus-tagged Shaker; not shown: mVenus, C-terminal, cleaved; polyhistidine, C-terminal, cleaved
B3: acetylated free N-terminal peptide of EI Shaker (Ac-AAVAGLYGLGKKRQHRKKQ) (peptide)
peptide: Ac-AAVAGLYGLGKKRQHRKKQ
notes: N terminus of the Shaker Kv channel without the initiator Met, with the E12K and D13K changes of EI Shaker; molecular weight 2,151 Da; also called additional N-terminal peptide; source: synthetic peptide (GenScript)
B4: GT Shaker Kv channel (N-terminally mVenus tagged Shaker after TEV cleavage, with additional Gly and Thr on the N terminus) (natural protein, Drosophila melanogaster)
chain: GTMAAVAGLYGLGEDRQHRKKQQQQQQHQKEQLEQKEEQKKIAERKLQLREQQLQRNSLDGYGSLPKLSSQDEEGGAGHGFGGGPQHFEPIPHDHDFCERVVINVSGLRFETQLRTLNQFPDTLLGDPARRLRYFDPLRNEYFFDRSRPSFDAILYYYQSGGRLRRPVNVPLDVFSEEIKFYELGDQAINKFREDEGFIKEEERPLPDNEKQRKVWLLFEYPESSQAARVVAIISVFVILLSIVIFCLETLPEFKHYKVFNTTTNGTKIEEDEVPDITDPFFLIETLCIIWFTFELTVRFLACPNKLNFCRDVMNVIDIIAIIPYFITLATVVAEEEDTLNLPKAPVSPQDKSSNQAMSLAILRVIRLVRVFRIFKLSRHSKGLQILGRTLKASMRELGLLIFFLFIGVVLFSSAVYFAEAGSENSFFKSIPDAFWWAVVTMTTVGYGDMTPVGVWGKIVGSLCAIAGVLTIALPVPVIVSNFNYFYHRETDQEEMQSQNFNHVTSCPYLPGTLGQHMKKSSLSESSSDMMDLDDGVESTPGLTETHPGRSAVAPFLGAQQQQQQPVASSLSMSIDKQLQHPLQQLTQTQLYQQQQQQQQQQQNGFKQQQQQTQQQLQQQQSHTINASAAAATSGSGSSGLTMRHNNALAVSIETDV
notes: two additional residues (Gly and Thr) left on the N terminus after removal of the mVenus tag with TEV protease, confirmed by mass spectrometry; Shaker Kv channel, Drosophila melanogaster, full-length gene; the N-terminal Met stands at position 3 of this construct; Purified by the N-terminal tag, so at least one N terminus is intact in each tetramer; other N termini may be truncated by …

Columns and labels:
[1] = molecular target: the molecule itself; test: cryo-EM structure; channel in MSP1E3D1 lipid nanodiscs (POPC:POPG:POPE 3:1:1), 20 mM Tris pH 7.5, 4 mM KCl, 46 mM NaCl; C4 refinement and focused classification in C1
[2] = molecular target: B1; test: cryo-EM structure; AcA-EI Shaker in MSP1E3D1 lipid nanodiscs, 4 mM KCl, 46 mM NaCl, incubated with 1 mM free acetylated N-terminal peptide for 30 min before grid preparation; C1; conditions: both partners purified

| Binder | binding result [1] | binding result [2] |
| --- | --- | --- |
| B1 | binds |  |
| B2 | binds |  |
| B3 |  | binds |
| B4 | binds |  |
